From US7648964B2, “Use of lacritin in promoting ocular cell survival” (University of Virginia Patent Foundation, priority 2004, dated 2010)
“Also recorded” adds a separate entry of the source.

B1: lacritin: recombinant human lacritin from E. coli; mature 119 residue fragment (SEQ ID NO:10) of native lacritin SEQ ID NO:4 (protein, listed as Homo sapiens)
chain: EDASSDSTGADPAQEAGTSKPNEEISGPAEPASPPETTTTAQETSAAAVQGTAKVTSSRQELNPLKSIVEKSILLTEQALAKAGKGMHGGVPGGKQFIENGSEFAQKLLKKFSLLKPWA
B2: N-24: deletion mutant comprising a deletion of the 24 amino terminal amino acids of lacritin (protein)
chain: DSTGADPAQEAGTSKPNEEISGPAEPASPPETTTTAQETSAAAVQGTAKVTSSRQELNPLKSIVEKSILLTEQALAKAGKGMHGGVPGGKQFIENGSEFAQKLLKKFSLLKPWA
modifications: homo sapiens
notes: deletion mutant comprising a deletion of the 24 amino terminal amino acids of lacritin

Key:
[1] = test system: NFAT; assay: NFAT changes by Western blotting in HSG cells; type: cell-based, human
From the text: There has been more evidence regarding PKC alpha translocation and NFAT activation.

[2] = biological target: collagen I (Homo sapiens, UniProt P02452+P08123); assay: ECM binding ELISA; conditions: 0-30 nM lacritin
Procedure: (§1) Binding studies were carried out in 96 well plates coated with 10 μg/well of collagen IV, laminin-1, entactin/nidogen-1, collagen I, fibronectin, vitronectin, EGF, heparin or BMS. Wells were washed, blocked (PBS-T), incubated with 0-30 nM lacritin (in PBS-T containing 1% BSA) for 1 hr (4° C.), washed and detected with anti-lacritin antibody (1/1000) by ELISA.

[3] = test system: collagen IV; assay: ECM binding ELISA; conditions: 0-30 nM lacritin
Procedure: as §1

[4] = biological target: fibronectin (Homo sapiens, UniProt P02751); assay: ECM binding ELISA; conditions: 0-30 nM lacritin
Procedure: as §1

[5] = test system: laminin-1; assay: ECM binding ELISA; conditions: 0-30 nM lacritin
Procedure: as §1

[6] = test system: RelA (p65); assay: Nuclear translocation of NF-kappaB subunit RelA (p65) in HSG cells; type: cell-based, human
From the text: Nuclear translocation of this transcription factor has also been observed after lacritin treatment. Very little RelA was initially observed in the nuclear compartment in resting HSG cells.

[7] = test system: human corneal epithelial (HCE) cells; assay: 3H-thymidine uptake mitogenesis assay; type: cell-based
Procedure: For phosphotyrosine blotting and mitogenesis assays, cells in serum-containing media were seeded overnight in 24-well plates at a density of 0.5×10^5 cells/mm^2 corresponding to 20-30% confluency after cell attachment, incubated in serum-free media without supplements for 24 h (phosphotyrosine) or washed with serum-free media without supplements three times (mitogenesis) and incubated with lacritin (1-1000 nM), or positive controls EGF (1.6 nM) and 10% fetal bovine serum, or negative controls bovine serum albumin or no additive in serum-free media without supplements for the indicated times (phosphotyrosine) or 30 h (mitogenesis). […] After washing, bound antibodies were detected with peroxidase-labeled secondary antibody and ECL. […] Incorporation was stopped with ice-cold phosphate buffered saline and followed by addition of cold and then room temperature trichloracetic acid (10%) for 10 min each, washing of cells with phosphate buffered saline, solubilization with 1 N sodium hydroxide, neutralization with 1 N hydrochloric acid, addition of scintillation fluid and then quantitation in a scintillation counter. […] Seventy-two hours post-transfection, mitogenesis was assessed by co-addition of 10 […] lacritin and [^3H]-thymidine (2 mCi/ml) (Amersham, Piscataway N.J.) for 24 hrs. […]

[8] = test system: human epidermal (A431) cells; assay: 3H-thymidine uptake mitogenesis assay; type: cell-based
[9] = test system: human glioma (U-1242-MG) cells; assay: 3H-thymidine uptake mitogenesis assay; type: cell-based; conditions: even at higher doses
[10] = test system: human glioma (U-251-MG) cells; assay: 3H-thymidine uptake mitogenesis assay; type: cell-based; conditions: even at higher doses
[11] = test system: mouse fibroblast (NIH/3T3) cells; assay: 3H-thymidine uptake mitogenesis assay; type: cell-based
[12] = test system: PLD; assay: Endogenous PLD activity in HSG cells; type: cell-based, human; conditions: bell-shaped activation curve
Procedure: We measured endogenous PLD activity after lacritin addition and obtained a bell-shaped activation curve that was optimal at 10 nM lacritin, thus recapitulating the same dose dependency observed for mitogenesis, PKCα translocation and PKCα dephosphorylation. To determine whether PKCα was upstream of PLD in lacritin signaling, cells were transfected with D7 siRNA. […] Transiently hypophosphorylated perinuclear Golgi PKCα appears to have at least two roles. It complexes with PLCγ2 leading to IP3 generation and calcium mobilization. It also activates PLD1.

[13] = test system: MUC16; assay: MUC16 blot of human corneal epithelial cells; type: cell-based; conditions: 10 nM
From the text: MUC16 is an important mucin on the ocular surface. Mucin contributes to the tear film, is important for wetting the ocular surface, and is reduced in Sjogren's syndrome patients. […] Cells were blotted for MUC16.

Sequence of collagen I (P02452 162-1218 limits assumed): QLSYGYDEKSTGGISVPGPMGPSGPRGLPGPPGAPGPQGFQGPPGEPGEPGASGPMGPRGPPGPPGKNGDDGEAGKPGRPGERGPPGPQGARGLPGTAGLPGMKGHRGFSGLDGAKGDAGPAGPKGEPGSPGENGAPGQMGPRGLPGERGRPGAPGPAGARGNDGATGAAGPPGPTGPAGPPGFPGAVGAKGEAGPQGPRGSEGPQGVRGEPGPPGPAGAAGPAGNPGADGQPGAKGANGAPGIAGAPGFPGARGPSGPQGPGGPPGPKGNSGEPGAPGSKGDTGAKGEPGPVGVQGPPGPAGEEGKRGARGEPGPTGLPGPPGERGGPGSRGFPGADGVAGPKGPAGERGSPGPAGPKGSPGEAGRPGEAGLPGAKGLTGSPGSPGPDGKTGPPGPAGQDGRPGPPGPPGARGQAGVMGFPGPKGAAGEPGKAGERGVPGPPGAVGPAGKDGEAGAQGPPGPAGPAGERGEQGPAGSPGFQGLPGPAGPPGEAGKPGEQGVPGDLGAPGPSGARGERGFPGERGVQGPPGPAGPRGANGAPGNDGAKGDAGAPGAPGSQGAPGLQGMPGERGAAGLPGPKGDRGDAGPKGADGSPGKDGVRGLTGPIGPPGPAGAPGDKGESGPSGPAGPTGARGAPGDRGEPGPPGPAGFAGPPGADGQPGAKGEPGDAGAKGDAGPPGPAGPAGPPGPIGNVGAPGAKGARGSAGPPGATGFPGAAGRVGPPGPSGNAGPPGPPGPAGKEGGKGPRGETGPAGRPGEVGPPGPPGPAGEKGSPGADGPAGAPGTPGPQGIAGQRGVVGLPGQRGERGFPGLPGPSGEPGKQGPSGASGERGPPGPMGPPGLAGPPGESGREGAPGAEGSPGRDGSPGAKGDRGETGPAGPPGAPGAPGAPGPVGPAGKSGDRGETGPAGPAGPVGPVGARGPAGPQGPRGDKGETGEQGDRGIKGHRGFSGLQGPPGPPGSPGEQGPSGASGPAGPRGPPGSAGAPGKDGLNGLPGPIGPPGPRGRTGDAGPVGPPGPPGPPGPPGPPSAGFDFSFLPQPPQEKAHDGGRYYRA
Sequence of collagen I (P08123 80-1119 limits assumed): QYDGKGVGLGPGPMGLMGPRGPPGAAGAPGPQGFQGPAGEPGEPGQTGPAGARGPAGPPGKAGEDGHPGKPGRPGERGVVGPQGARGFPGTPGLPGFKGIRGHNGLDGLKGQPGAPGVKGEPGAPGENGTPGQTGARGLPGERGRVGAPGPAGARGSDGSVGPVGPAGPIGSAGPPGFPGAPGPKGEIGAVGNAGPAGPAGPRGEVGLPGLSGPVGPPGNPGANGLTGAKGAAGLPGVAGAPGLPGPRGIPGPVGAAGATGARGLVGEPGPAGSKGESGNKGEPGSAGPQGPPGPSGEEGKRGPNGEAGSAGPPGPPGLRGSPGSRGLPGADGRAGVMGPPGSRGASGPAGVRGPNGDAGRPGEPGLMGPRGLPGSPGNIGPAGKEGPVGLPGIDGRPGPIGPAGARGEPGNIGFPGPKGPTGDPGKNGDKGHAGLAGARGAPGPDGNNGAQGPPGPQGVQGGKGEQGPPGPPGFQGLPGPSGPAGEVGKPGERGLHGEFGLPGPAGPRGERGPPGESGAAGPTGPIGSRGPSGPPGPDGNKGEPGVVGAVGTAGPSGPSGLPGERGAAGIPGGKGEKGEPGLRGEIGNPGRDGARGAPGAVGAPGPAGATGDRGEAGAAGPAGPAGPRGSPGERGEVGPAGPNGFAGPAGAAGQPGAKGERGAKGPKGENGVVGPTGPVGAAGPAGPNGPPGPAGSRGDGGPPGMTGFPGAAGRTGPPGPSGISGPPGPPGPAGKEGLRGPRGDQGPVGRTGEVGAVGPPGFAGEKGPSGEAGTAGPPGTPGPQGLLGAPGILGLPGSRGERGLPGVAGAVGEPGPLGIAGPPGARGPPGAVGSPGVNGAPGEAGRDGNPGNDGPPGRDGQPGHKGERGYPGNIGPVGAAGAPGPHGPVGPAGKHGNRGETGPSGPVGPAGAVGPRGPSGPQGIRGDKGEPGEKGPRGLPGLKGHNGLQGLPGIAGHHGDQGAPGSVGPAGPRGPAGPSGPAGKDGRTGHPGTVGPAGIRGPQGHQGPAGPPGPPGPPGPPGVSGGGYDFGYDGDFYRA
Sequence of fibronectin (P02751 32-2477, species assumed): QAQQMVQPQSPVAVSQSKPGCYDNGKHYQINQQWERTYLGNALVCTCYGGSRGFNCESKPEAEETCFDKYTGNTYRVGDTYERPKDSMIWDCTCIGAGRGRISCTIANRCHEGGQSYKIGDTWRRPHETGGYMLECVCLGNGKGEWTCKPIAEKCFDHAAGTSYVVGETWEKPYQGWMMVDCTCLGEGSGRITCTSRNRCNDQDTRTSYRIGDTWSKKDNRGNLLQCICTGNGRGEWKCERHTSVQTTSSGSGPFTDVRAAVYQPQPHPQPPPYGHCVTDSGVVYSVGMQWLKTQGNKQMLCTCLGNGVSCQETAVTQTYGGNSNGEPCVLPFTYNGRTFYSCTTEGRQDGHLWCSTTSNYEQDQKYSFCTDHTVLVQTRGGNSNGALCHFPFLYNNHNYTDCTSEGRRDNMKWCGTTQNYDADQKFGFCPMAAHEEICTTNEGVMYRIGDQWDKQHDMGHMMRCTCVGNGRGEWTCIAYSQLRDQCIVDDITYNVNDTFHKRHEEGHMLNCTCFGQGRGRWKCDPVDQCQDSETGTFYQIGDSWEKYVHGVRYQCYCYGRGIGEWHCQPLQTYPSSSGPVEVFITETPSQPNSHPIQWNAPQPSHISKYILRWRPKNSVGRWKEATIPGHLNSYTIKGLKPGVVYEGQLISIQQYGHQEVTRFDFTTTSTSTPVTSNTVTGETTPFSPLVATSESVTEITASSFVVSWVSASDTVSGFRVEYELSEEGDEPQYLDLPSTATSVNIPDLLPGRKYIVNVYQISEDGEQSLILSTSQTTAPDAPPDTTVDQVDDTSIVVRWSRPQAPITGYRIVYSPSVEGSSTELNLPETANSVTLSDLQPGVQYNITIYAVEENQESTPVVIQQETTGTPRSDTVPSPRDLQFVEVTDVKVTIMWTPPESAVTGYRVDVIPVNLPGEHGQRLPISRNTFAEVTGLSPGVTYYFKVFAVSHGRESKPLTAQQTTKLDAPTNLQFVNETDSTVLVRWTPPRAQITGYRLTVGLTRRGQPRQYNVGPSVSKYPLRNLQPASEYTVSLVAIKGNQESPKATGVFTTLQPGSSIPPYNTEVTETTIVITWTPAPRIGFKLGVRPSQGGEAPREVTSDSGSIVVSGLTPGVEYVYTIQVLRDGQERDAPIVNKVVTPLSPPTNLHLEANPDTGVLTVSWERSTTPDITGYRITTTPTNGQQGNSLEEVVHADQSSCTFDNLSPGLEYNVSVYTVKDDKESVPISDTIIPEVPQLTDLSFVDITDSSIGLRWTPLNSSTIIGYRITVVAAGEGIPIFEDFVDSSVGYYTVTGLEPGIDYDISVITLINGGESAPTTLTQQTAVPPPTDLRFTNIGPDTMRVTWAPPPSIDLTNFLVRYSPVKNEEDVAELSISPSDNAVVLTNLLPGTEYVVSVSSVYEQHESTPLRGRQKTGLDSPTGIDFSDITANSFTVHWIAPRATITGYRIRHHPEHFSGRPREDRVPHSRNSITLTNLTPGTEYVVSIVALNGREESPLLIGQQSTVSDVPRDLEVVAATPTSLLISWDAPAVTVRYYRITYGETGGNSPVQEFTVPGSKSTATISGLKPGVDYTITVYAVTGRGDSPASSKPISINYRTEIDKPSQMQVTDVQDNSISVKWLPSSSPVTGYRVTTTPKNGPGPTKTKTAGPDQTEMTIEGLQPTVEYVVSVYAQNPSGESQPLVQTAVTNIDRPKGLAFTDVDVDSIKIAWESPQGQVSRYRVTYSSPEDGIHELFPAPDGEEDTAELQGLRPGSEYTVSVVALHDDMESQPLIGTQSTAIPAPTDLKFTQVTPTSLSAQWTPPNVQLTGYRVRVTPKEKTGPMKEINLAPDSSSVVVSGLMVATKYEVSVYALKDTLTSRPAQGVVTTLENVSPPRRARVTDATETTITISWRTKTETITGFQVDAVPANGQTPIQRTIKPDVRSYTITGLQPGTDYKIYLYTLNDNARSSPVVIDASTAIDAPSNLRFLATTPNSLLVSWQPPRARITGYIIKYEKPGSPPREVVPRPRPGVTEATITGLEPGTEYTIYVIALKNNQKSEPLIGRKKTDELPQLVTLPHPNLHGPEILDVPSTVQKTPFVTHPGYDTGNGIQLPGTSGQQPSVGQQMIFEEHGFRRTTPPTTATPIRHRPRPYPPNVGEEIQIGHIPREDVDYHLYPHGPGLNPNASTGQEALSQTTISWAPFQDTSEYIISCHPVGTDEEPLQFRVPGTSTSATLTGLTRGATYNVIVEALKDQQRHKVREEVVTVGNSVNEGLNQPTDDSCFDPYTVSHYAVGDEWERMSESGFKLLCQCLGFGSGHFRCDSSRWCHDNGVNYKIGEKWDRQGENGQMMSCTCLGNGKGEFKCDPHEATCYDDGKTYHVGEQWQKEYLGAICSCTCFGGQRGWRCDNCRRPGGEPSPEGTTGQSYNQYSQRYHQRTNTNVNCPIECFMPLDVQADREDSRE

| Molecule | effect on lacritin-induced changes of NFAT [1] | binding to collagen I [2] | binding to collagen IV [3] | binding to fibronectin [4] | binding to laminin-1 [5] | nuclear RelA at 4 hours ([6]; 4 hours after initial contact with lacritin) | time of peak nuclear RelA ([6]; lacritin treatment) | time to detectable RelA in nucleus ([6]; lacritin treatment) [min] | mitogenesis [7] | mitogenesis [8] | mitogenesis [9] | mitogenesis [10] | mitogenesis [11] | concentration of optimal PLD activation [12] [nM] | MUC16 secretion [13] |
| --- | --- | --- | --- | --- | --- | --- | --- | --- | --- | --- | --- | --- | --- | --- | --- |
| Cn1c2ccccc2c2c3c(c4c5ccccc5n(CCC#N)c4c21)CNC3=O [Go 6976] | abolish changes of NFAT | – | – | – | – | – | – | – | – | – | – | – | – | – | – |
| B1 | – | No binding | strong basement membrane binding | remarkable avidity | strong basement membrane binding | high level of RelA was still observed | between 15 minutes to 1 hour | 1 | mitogenic; also recorded: promote cell proliferation | not mitogenic | not mitogenic | not mitogenic | not mitogenic | 10 | greatly enhanced |
| B2 | – | – | – | – | – | – | – | – | promote cell proliferation | – | – | – | – | – | – |
